In US20190064149A1, “CANCER EXAMINATION METHOD AND EXAMINATION KIT” (THE UNIVERSITY OF TOKYO, priority 2013, published 2019):
Entries after “also recorded” stand apart in the source; their conditions may differ.

Tests used:
Type in all cases: cell-based, human
RhoG = RhoG activity pull-down with ELMO2/GST beads in MT1-MMP knockdown A431 cells; conditions: MT1-MMP knockdown A431 cells after EGF stimulation
From the text: By using A431 cells whose MT1-MMP expression was knocked down by siRNA, an influence of Ephrin-A1-dependent EphA2 on an RhoG signaling downstream of the EGF receptor was studied.
A fusion protein of ELMO2 and GST, each serving as an effector of RhoG, was solid phased on glutathione beads and the RhoG activity in a cell suspension solubilized with RIPA was detected by pull-down using ELMO2/GST beads as a bait. Co-precipitated RhoG was detected using an anti-RhoG polyclonal antibody (Santa Cruz) and the RhoG activity was quantified by densitometry with Image J. An expression vector of ELMO2 was kindly given by Chihiro Sasakawa, professor of Division of Bacterial Infection, Medical Institute of Science, The University of Tokyo.

A431 cells [1] = experiment: Migration activity of EGF-stimulated cells in a transwell chamber; conditions: EGF-stimulated MT1-MMP knockdown cells
From the text: No RhoG activity was detected from the cells not treated with EGF (A). […] Similar results were found in the SCC61 cells (C).

A431 cells [2] = experiment: Cell growth assay, three-dimensional collagen gel culture and spheroid formation; conditions: three-dimensional culture in collagen gel and anchorage-independent spheroid formation
Description: Collagen I gel (3 mg/ml, Nitta Gelatin) extracted in acetic acid, a neutralization buffer (50 mM NaOH, 260 mM NaHCO3, 200 mM HEPES), and each of the two types of cells were mixed and the resulting mixture was seeded to satisfy 2.5×10^4/250 μl/48 well plate. After completion of the polymerization of the collagen gel, they were cultured for 7 days in 400 μl/well of a DMEM/1% FCS culture solution. After culturing, the collagen gel was dissolved with 0.1% collagenase. The cells were treated with trypsin to dissociate them into single cells and the number of the cells was counted using a Coulter counter.
The two types of the cells were each detached with trypsin from one another and the number of the cells was counted by a hemocytometer. They were seeded in a low adhesion plate (PrimeSurface (registered trademark), Sumitomo Bakelite) of each cell protein (100 cells/100 μl/96 well plate) and cultured for 7 days in a DMEM/1% FCS culture solution. The number of spheroid formation cells was obtained from their volume (½×long diameter×(short diameter)^2).

B1: Ephrin-A1: typical ligand of EphA2 (protein)
chain: DRHTVFWNSSNPKFRNEDYTIHVQLNDYVDIICPHYEDHSVADAAMEQYILYLVEHEEYQLCQPQSKDQVRWQCNRPSAKHGPEKLSEKFQRFTPFTLGKEFKEGHSYYYISKPIHQHEDRCLRLKVTVSGKITHSPQAHDNPQEKRLAADDPEVRVLHSIGHS
Q: B1 was tested. Which RhoG activity (RhoG) did it give?
A: The RhoG activity was “significant decrease; also recorded: significantly reduced”.

Q: And the cell migration (A431 cells [1])?
A: The cell migration was “significantly suppressed”.

Q: And the “growth of MT1-MMP knockdown cells” value (A431 cells [2])?
A: The value was “significantly suppressed”.
